Test results from US20100047255.

Experiments:
[1] = target: T1, Use1 purified from bacteria
T1 chain: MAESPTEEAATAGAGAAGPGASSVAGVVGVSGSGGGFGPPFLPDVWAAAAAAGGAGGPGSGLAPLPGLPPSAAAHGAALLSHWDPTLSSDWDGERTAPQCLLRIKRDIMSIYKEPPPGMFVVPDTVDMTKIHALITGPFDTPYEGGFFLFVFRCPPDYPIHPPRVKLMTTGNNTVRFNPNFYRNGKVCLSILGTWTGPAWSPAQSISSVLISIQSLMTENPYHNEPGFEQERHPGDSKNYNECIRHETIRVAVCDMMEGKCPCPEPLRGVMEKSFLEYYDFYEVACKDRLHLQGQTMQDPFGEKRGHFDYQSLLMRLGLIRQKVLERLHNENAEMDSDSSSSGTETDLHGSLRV

Chain of GST-Ub, P0CG48 (P0CG48 whole entry, looked up): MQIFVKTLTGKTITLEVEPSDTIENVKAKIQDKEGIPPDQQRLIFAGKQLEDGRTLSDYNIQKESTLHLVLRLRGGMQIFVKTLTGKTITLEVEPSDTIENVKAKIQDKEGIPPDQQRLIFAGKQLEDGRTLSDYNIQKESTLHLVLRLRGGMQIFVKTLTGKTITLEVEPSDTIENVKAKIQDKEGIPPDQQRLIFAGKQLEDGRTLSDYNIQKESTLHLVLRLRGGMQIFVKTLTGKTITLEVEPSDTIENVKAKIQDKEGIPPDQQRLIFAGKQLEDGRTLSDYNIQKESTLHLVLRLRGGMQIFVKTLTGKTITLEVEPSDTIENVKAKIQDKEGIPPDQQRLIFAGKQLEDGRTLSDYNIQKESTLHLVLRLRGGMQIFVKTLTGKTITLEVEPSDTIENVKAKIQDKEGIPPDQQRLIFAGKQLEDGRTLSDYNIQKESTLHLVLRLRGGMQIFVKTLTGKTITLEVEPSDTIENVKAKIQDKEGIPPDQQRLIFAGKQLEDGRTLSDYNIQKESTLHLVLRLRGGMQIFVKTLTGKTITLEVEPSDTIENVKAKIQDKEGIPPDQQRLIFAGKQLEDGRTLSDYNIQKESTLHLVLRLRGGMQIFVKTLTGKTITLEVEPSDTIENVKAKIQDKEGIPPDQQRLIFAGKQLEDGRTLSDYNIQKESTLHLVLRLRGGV
Chain of GST-Nedd8, Q15843 (Q15843 whole entry, looked up): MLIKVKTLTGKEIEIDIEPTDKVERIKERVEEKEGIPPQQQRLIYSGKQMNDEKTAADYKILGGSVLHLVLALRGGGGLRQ
Chain of GST-ISG15, P05161 (P05161 1-157): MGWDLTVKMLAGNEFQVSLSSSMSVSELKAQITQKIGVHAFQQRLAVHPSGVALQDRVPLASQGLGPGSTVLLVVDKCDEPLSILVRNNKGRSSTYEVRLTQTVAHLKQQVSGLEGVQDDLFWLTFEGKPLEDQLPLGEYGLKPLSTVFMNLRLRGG

B1: Uba3/APPBP1 (protein)
chain 1: MADGEEPEKKRRRIEELLAEKMAVDGGCGDTGDWEGRWNHVKKFLERSGPFTHPDFEPSTESLQFLLDTCKVLVIGAGGLGCELLKNLALSGFRQIHVIDMDTIDVSNLNRQFLFRPKDIGRPKAEVAAEFLNDRVPNCNVVPHFNKIQDFNDTFYRQFHIIVCGLDSIIARRWINGMLISLLNYEDGVLDPSSIVPLIDGGTEGFKGNARVILPGMTACIECTLELYPPQVNFPMCTIASMPRLPEHCIEYVRMLQWPKEQPFGEGVPLDGDDPEHIQWIFQKSLERASQYNIRGVTYRLTQGVVKRIIPAVASTNAVIAAVCATEVFKIATSAYIPLNNYLVFNDVDGLYTYTFEAERKENCPACSQLPQNIQFSPSAKLQEVLDYLTNSASLQMKSPAITATLEGKNRTLYLQSVTSIEERTRPNLSKTLKELGLVDGQELAVADVTTPQTVLFKLHFTS
chain 2: MAQLGKLLKEQKYDRQLRLWGDHGQEALESAHVCLINATATGTEILKNLVLPGIGSFTIIDGNQVSGEDAGNNFFLQRSSIGKNRAEAAMEFLQELNSDVSGSFVEESPENLLDNDPSFFCRFTVVVATQLPESTSLRLADVLWNSQIPLLICRTYGLVGYMRIIIKEHPVIESHPDNALEDLRLDKPFPELREHFQSYDLDHMEKKDHSHTPWIVIIAKYLAQWYSETNGRIPKTYKEKEDFRDLIRQGILKNENGAPEDEENFEEAIKNVNTALNTTQIPSSIEDIFNDDRCINITKQTPSFWILARALKEFVAKEGQGNLPVRGTIPDMIADSGKYIKLQNVYREKAKKDAAAVGNHVAKLLQSIGQAPESISEKELKLLCSNSAFLRVVRCRSLAEEYGLDTINKDEIISSMDNPDNEIVLYLMLRAVDRFHKQQGRYPGVSNYQVEEDIGKLKSCLTGFLQEYGLSVMVKDDYVHEFCRYGAAEPHTIAAFLGGAAAQEVIKIITKQFVIFNNTYIYSGMSQTSATFQL
For B1, which “activation in vitro (non-reducing gel); result: activated” value (GST-Nedd8, Q15843) is on record?
Its value is “GST-Nedd8 is activated by Uba3/APPBP1 in vitro”.

B2: GST-Ube1L (protein)
chain: MDALDASKLLDEELYSRQLYVLGSPAMQRIQGARVLVSGLQGLGAEVAKNLVLMGVGSLTLHDPHPTCWSDLAAQFLLSEQDLERSRAEASQELLAQLNRAVQVVVHTGDITEDLLLDFQVVVLTAAKLEEQLKVGTLCHKHGVCFLAADTRGLVGQLFCDFGEDFTVQDPTEAEPLTAAIQHISQGSPGILTLRKGANTHYFRDGDLVTFSGIEGMVELNDCDPRSIHVREDGSLEIGDTTTFSRYLRGGAITEVKRPKTVRHKSLDTALLQPHVVAQSSQEVHHAHCLHQAFCALHKFQHLHGRPPQPWDPVDAETVVGLARDLEPLKRTEEEPLEEPLDEALVRTVALSSAGVLSPMVAMLGAVAAQEVLKAISRKFMPLDQWLYFDALDCLPEDGELLPSPEDCALRGSRYDGQIAVFGAGFQEKLRRQHYLLVGAGAIGCELLKVFALVGLGAGNSGGLTVVDMDHIERSNLSRQFLFRSQDVGRPKAEVAAAAARGLNPDLQVIPLTYPLDPTTEHIYGDNFFSRVDGVAAALDSFQARRYVAARCTHYLKPLLEAGTSGTWGSATVFMPHVTEAYRAPASAAASEDAPYPVCTVRYFPSTAEHTLQWARHEFEELFRLSAETINHHQQAHTSLADMDEPQTLTLLKPVLGVLRVRPQNWQDCVAWALGHWKLCFHYGIKQLLRHFPPNKVLEDGTPFWSGPKQCPQPLEFDTNQDTHLLYVLAAANLYAQMHGLPGSQDWTALRELLKLLPQPDPQQMAPIFASNLELASASAEFGPEQQKELNKALEVWSVGPPLKPLMFEKDDDSNFHVDFVVAAASLRCQNYGIPPVNRAQSKRIVGQIIPAIATTTAAVAGLLGLELYKVVSGPRPRSAFRHSYLHLAENYLIRYMPFAPAIQTFHHLKWTSWDRLKVPAGQPERTLESLLAHLQEQHGLRVRILLHGSALLYAAGWSPEKQAQHLPLRVTELVQQLTGQAPAPGQRVLVLELSCEGDDEDTAFPPLHYEL
What does the source list for B2?
activation in vitro (SDS-PAGE, Coomassie); result: not activated (GST-Ub, P0CG48): it failed to activate GST-Ub; activation in vitro (SDS-PAGE, Coomassie); result: activated (GST-ISG15, P05161): While it was active toward ISG15, as expected

B3: Flag-tagged Uba6 (protein)
chain: MEGSEPVAAHQGEKASCSSWGTGSTNKNLPIMSTASVEIDDALYSRQRYVLGDTAMQKMAKSHVFLSGMGGLGLEIAKNLVLAGIKAVTIHDTEKCQAWDLGTNFFLSEDDVVNKRNRAEAVLKHIAELNPYVHVTSSSAPFNETTDLSFLDKYQCVVLTEMKLPLQKKINDFCRSQCPPIKFISADVHGIWSRLFCDFGDEFEVLDTTGEEPKEIFISNITQTNPGIVTCLENHPHKLETGQFLTFREINGMTGLNGSIQQITVISPFSFSIGDTTELEPYLHGGIAVQVKTPKTVFFESLERQLKHPKCLIVDFSNPEAPLEIHTAMLALDQFQEKYSRKPNVGCQQDSEELLKLATSISETLEEKPDVNADIVHWLSWTAQGFLSPLAAAVGGVASQEVLKAVTGKFSPLCQWLYLEAADIVESLGKPECEEFLPRGDRYDALRACIGDTLCQKLQNLNIFLVGCGAIGCEMLKNFALLGVGTSKEKGMITVTDPDLIEKSNLNRQFLFRPHHIQKPKSYTAADATLKINSQIKIDAHLNKVCPTTETIYNDEFYTKQDVIITALDNVEARRYVDSRCLANLRPLLDSGTMGTKGHTEVIVPHLTESYNSHRDPPEEEIPFCTLKSFPAAIEHTIQWARDKFESSFSHKPSLFNKFWQTYSSAEEVLQKIQSGHSLEGCFQVIKLLSRRPRNWSQCVELARLKFEKYFNHKALQLLHCFPLDIRLKDGSLFWQSPKRPPSPIKFDLNEPLHLSFLQNAAKLYATVYCIPFAEEDLSADALLNILSEVKIQEFKPSNKVVQTDETARKPDHVPISSEDERNAIFQLEKAILSNEATKSDLQMAVLSFEKDDDHNGHIDFITAASNPRAKMYSIEPADRFKTKRIAGKIIPAIATTTATVSGLVALEMIKVTGGYPFEAYKNCFLNLAIPIVVFTETTEVRKTKIRNGISFTIWDRWTVHGKEDFTLLDFINAVKEKYGIEPTMVVQGVKMLYVPVMPGHAKRLKLTMHKLVKPTTEKKYVDLTVSFAPDIDGDEDLPGPPVRYYFSHDTD
What does the source list for B3?
charging of purified Use1 (2.5 µM) with increasing Flag-Uba6, 25 µM ubiquitin, 2 mM ATP; result: charged [1]: Charging of purified Use1 by Uba6; activation in vitro, titration of GST-Ub, anti-Flag immunoblot; result: activated (GST-Ub, P0CG48): Uba6 activated GST-Ub but not GST-Nedd8; ubiquitin activation in vitro (non-reducing SDS-PAGE, Coomassie); result: activated (GST-Ub, P0CG48): Uba6 could activate ubiquitin; activation in vitro, titration of GST-Nedd8, anti-Flag immunoblot; result: not activated (GST-Nedd8, Q15843): Uba6 activated GST-Ub but not GST-Nedd8
